Experimental findings from the RNAGym collection of RNA variant scans (doi:10.1073/pnas.2313332121) are described below.

B1: TPR t1 (parent)
chain: GACCAAUCUGCCCUCAGAGCUCGAGAACAUCUUCGGAUGCAGAGGAGGCAGGCUUCGGUGGCGCGAUAGCGCCAACGUCCUCAACCUCCAAUGCAUCCCACCACAUGAUGAUGCCUGAAGAGCCUUGGUUUUUUG

The variants in the series derive from B1. Nature of the series: polymerase ribozyme fitness, log enrichment relative to wild type (log ratio); higher = more active; in vitro selection for triplet polymerase activity. The procedure, abridged: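 In triplicate, a single round of in vitro selection was run on each mutant library, PCR-built and transcribed, covering one subunit of a heterodimeric triplet polymerase ribozyme. Frozen incubation at −7 °C followed annealing with a biotinylated primer, partner subunit and triplets, and extended constructs were then gel-excised, streptavidin-captured and taken through RT-PCR. Fitness is the logarithm of genotype enrichment over wild-type enrichment, from inverse-variance-weighted replicate averages of Illumina-sequenced inputs and outputs. […] only genotypes with ≥10 input reads and ≥1 read per output were kept.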
In the case of GACCAACCUGCCCUCAGAGCUAGAGAACAUCUUCGGAUGCAGAGGAGGCAGGCUUCGGUGGCGCGAUAGCGCCAACGUCCUAAACCUCUAAUGCAUCCCACCACAUGAUGAUGCCUGAAGAGCCUUGGUUUUUUG, the “polymerase ribozyme fitness (log ratio)” value is -4.93.
GACCAAUCUGCCCUAAGAGCUCGAGAACAUCUUCGGAUGCAGAGGAGGGAGGCUUCGGUGGCGCGAUAGCGCCAACGUCCUCAACCUCCAAUGCAUCUCACCACAUGAUGAUGCCUGAAGAGCCUUGGUUUUUUG: the “polymerase ribozyme fitness (log ratio)” value was -3.16.
On to GACCAAUCUGCCCUCAGAUCUCGAGAACAUCUUCGGAUGUAGAGGAGGCAGGCUUCGGUGGCGCGAUAGCGCCAACGUCCUCAACCUCCAAUGCAUCCCACCACAUGAUGAUGCCUGAAGAGCCUUGGUUUUUUG, for which the “polymerase ribozyme fitness (log ratio)” value was -3.
The figure for GACCAAUCUGCCCUCAGAGCUCGAGAACAUCUUCGGAUGCAGAGGAGGCAGGCUUCGGUGGCGCGAUAGCGACAACGUCCUCAACCUCCAAUGCAUCCCACCACAUGAUGAUGCCUGAAGAGUCUUGGUUUUUUG is 1.5; for GACCAAUCUGCCCUCAGAGCUCGAGAACAUCUUCGGAUGCAGAGGUGGCAGGCUUCGGUGGCUCGAUAGCGCCAACGACCUCAACCUCCUAUGCAUCCCACCACAUGAUGAUGCCUGAAGAGCCUUGGUUUUUUG it is -3.56; for GACCAAUCUGCCCUCAGAGCUCGAGAACAUCUUCGUAUGCAGAAGAGGCAGGCUUCGGUGGCGCGAUAGCGCCAACGUCCUCAACCUCCAAUGCAUCCCACCACAUGAUGAAGCCUGAAGAGCCUUGGUUUUUUG it is -0.0288.
The same measure for GACCAAUCUGUCCUCAGAGCUCGAGAACAUCUUCGGAUGCAGAGGAGGCAGGCUUCGGUGGCGCGAUAGCGCCAACGUCCUCAACCUGCAAUGCAUCCCACCACAUGAUGAUGACUGAAGAGCCUAGGUUUUUUG: -5.99; for GACCAACCUGCCCUCAGAGCUCGAGAACAUCUUCGGAUGCAGAGGAGGCAGGCUUCGGUGGCGCGAUAGCGCCAACGUCCUCAAGCCCCAAUGCAUCCCACCACAUGAUGAUGCCUGAAGAGCCUUGGUUUUUUG: -1.57; for GACCAGUCUGCCCUCAGAGCUCGAGAACAUCUUCGGAUGCAGAGGAGACAGCCUUCGGUGGCGCGAUAGCGCCAACGUCCUCAAGCUCCAAUGCAUCCCACCACAUGAUGACGCCUGAAGAGCCUUGGUUUUUUG: -0.453.
With GACCAAUCUGCCCUCAGAGCUCGAGAACAUCUUCGGAUGCAGAGGAGGCAGGCUUCGGUGGCGCGAUAGCGCCAACGUCCUCAACCUCCAAUGCAUCCCACCACAUGAUGAUGCCUGAAGAAUCUUGGUUUUUUG, the “polymerase ribozyme fitness (log ratio)” value turned out to be 0.258.
In the case of GACCAAUUUGCCCUCAGAGCUCGAGAACAUCUUCGUAUACAGAGGAGUCAGGCUUCGGUGGCGCGAUAGCGACAACGUCCUCAACCUCCAAUGCAUCCCACCACAAGAUGAUGCCUGAAGAGCCUUGGUUUUUUG, the “polymerase ribozyme fitness (log ratio)” value is -1.69.
In the case of GACCAAUCUGCCCUCAGAGCCCGAGAACAUCUUCGGAUGCAGAGGAGGCAGGCUUCGGUUGCGCGAUAGCGCCAACGUCCUCAACCUCCAAUGCAUCCCACCACAUGAUAAUGCCUGAAGAGCCUUGGUUUUUUG, the “polymerase ribozyme fitness (log ratio)” value was -3.6.
Turning to GACCAAUCUGCCCUCAGAGCUCGAGGACAUCUUCGGAUGCAGAGGAGGCAGGCUUCGGUGGCGCGAUAGCCCCAACGUGCUCAACCUCCAAUGCAUCCCACCACAUGAUGAUGCCUGAAGAGCCUUGGUUUUUUG, the “polymerase ribozyme fitness (log ratio)” value was -3.86.
As for GACCAAUCUGUCCUCAGAGCUCGAGAACAUCUUCGGAUUCAGAGGAGGCAGGCUUCGGUGGCGCGAUAGCGCCAACGUUCUCAACCUCCAAUUCAUCCCACCACAUGAUGAUGCCUGAAGAGCCUUGGUUUUUUG, the “polymerase ribozyme fitness (log ratio)” value was -2.7.
As to GACCAAUCUGCCCUCAGAGCUCGAGAACAUCCUCGGAUGCAGAGGAUUCAGGCUUCGGUGGCGCGAUAGCGCCAAUGUCCUCAACCUCCAAUGCAUCCCACCACAUGAUGAGGCCUGAAGAGCCUUGGUUUUUUG, the “polymerase ribozyme fitness (log ratio)” value is -4.6.
For the variant GACCAAUCUGCCCUCAGAGCUCGAGAACAUCUUCGGAUGCAGAGGAGGCAGGGUUGGGUGGCGCGAUAGCGCCAACGUCCUCAACCUCCAAUGCAUCCCACCACAUGAUGAUGCCUGAAGAGCCUUGGUUUUUUG, the “polymerase ribozyme fitness (log ratio)” value was -0.593.
The figure for GACCAAUCUGCCCUCAGAGCUCGAGAACAUCUUCGGAUGCAGAGCAGGCAGGCUUCGGUGGCGCGAUAGCGCCAACGUCCUCAACCUCCAAUUCAUCCCACCACAUGAUGAUGCCUGAAGAGCCUUGGUUUUUUG is -3.67.
Turning to GACCAAUCUGCCCUCAGGGCUCGAGAACAUCUUCGGAUGCCGGGGAGGCAGGCUUCUGUGGCGCGAUAGCGCCAACGUCCUCAACCUCCAAUGCAUCCCACCACAUGAUGAUGCCUGAAGAGCCUUGGUUUUUUG, the “polymerase ribozyme fitness (log ratio)” value is -4.59.
Regarding GACCAAUCUGCCCUCAGAGCUCGAGAACAUCUUCGGAUGCAGAGGAGGCAGGCUUCGGUGGCGCGAUAGCCCCAACGUCCUCAACCCCCAAUGCAUCCCACCACAUGAUGAUGCCUGAAGAGCCUUGGUUUUUUG, the “polymerase ribozyme fitness (log ratio)” value was -1.45.
On to GACCAAUCUGCCCUCAGAGCUAGAGAACAUCUUCGGAUGCAGGGGUGGCAGGCUUCGGUGGCGCGAUAGCGUCAACGUCCUCAACCUCCAAUGCAUCCCACCACAUGAUGAUCCCGGAAGAGCCUUGGUUUUUUG, for which the “polymerase ribozyme fitness (log ratio)” value is -6.81.
The figure for GACCAAUCUGCCCUCAGAGCUCGAGAACUUCUUCGGAUGCAGAGGAGGCAGGUUUCGGUGGCGCGAUAGCGCCAACGUUCUCAACCUCCAAUGCAUCCCACCACAUGAUGCUGCCUGAACAGCCUUGGUUUUUUG is -3.26.
